B2: Glucose-6-phosphate dehydrogenase (G6PDH) from Leuconostoc mesenteroides, aggregated (enzyme, UniProt P11411 1-486, looked up)
chain: MVSEIKTLVTFFGGTGDLAKRKLYPSVFNLYKKGYLQKHFAIVGTARQALNDDEFKQLVRDSIKDFTDDQAQAEAFIEHFSYRAHDVTDAASYAVLKEAIEEAADKFDIDGNRIFYMSVAPRFFGTIAKYLKSEGLLADTGYNRLMIEKPFGTSYDTAAELQNDLENAFDDNQLFRIDHYLGKEMVQNIAALRFGNPIFDAAWNKDYIKNVQVTLSEVLGVEERAGYYDTAGALLDMIQNHTMQIVGWLAMEKPESFTDKDIRAAKNAAFNALKIYDEAEVNKYFVRAQYGAGDSADFKPYLEELDVPADSKNNTFIAGELQFDLPRWEGVPFYVRSGKRLAAKQTRVDIVFKAGTFNFGSEQEAQEAVLSIIIDPKGAIELKLNAKSVEDAFNTRTIDLGWTVSDEDKKNTPEPYERMIHDTMNGDGSNFADWNGVSIAWKFVDAISAVYTADKAPLETYKSGSMGPEASDKLLAANGDAWVFKG
notes: glucose-6-phosphate dehydrogenase, Leuconostoc mesenteroides; Thermally denatured and aggregated before the co-sedimentation assay; native G6PDH served as the control that was subtracted; also called G6PDH aggregates; source: bought: Worthington

Data set [1] deals with the molecule itself. The data set can be described thus: cross-linking; 2 µM protein, 0.005% glutaraldehyde, 15 min at 4 °C in 20 mM Hepes pH 7.6, 50 mM KCl, 5 mM MgCl2, 2 mM DTT; SDS-PAGE, Coomassie; monomer, dimer and oligomer bands.
The target in a further data set is T1, Hsc70wt (human, UniProt P11142 1-646).
T1 construct: Hsc70 (HSPA8), the constitutively expressed Hsp70 isoform, cDNA from Addgene; also called HSPA8
The data set can be described thus: co-sedimentation; 2 µM Hsc70, 1 µM J-domain protein (DNAJB1, DNAJA2ΔCD or DNAJA2wt), 0.4 µM Apg2, 0.4 µM aggregated or native G6PDH; pellets on SDS-PAGE, band intensities; amounts in pellets with native G6PDH subtracted. Particulars: both partners purified.

Data set [2] concerns the molecule itself. Briefly: static light scattering; 15 µM DNAJA2 in refolding buffer (20 mM Hepes-KOH pH 7.6, 50 mM KCl, 5 mM MgCl2, 2 mM DTT) heated to 40 °C and cooled back to 25 °C; oligomers to dimers.
The target in data set [3] is B2. The data set can be described thus: co-sedimentation; 2 µM Hsc70, 1 µM J-domain protein (DNAJB1, DNAJA2ΔCD or DNAJA2wt), 0.4 µM Apg2, 0.4 µM aggregated or native G6PDH; pellets on SDS-PAGE, band intensities; amounts in pellets with native G6PDH subtracted. Particulars: both partners purified.
Data set [4] deals with the molecule itself. Briefly: negative-stain electron microscopy; samples on carbon-coated grids, 2% uranyl acetate; 15 µM protein; tubular oligomers of dimers.
Data set [5] deals with the molecule itself. The data set can be described thus: dynamic light scattering; 30 µM protein in 20 mM Hepes-KOH pH 7.6, 50 mM KCl, 2 mM DTT; volume-based size distributions; the wt also with 300 mM NaCl, 5% 1,6-hexanediol or at 40 °C, which shift it to smaller particles; self-association: dimer and dimers to larger oligomers.

T1 sequence (P11142 whole entry, canonical isoform): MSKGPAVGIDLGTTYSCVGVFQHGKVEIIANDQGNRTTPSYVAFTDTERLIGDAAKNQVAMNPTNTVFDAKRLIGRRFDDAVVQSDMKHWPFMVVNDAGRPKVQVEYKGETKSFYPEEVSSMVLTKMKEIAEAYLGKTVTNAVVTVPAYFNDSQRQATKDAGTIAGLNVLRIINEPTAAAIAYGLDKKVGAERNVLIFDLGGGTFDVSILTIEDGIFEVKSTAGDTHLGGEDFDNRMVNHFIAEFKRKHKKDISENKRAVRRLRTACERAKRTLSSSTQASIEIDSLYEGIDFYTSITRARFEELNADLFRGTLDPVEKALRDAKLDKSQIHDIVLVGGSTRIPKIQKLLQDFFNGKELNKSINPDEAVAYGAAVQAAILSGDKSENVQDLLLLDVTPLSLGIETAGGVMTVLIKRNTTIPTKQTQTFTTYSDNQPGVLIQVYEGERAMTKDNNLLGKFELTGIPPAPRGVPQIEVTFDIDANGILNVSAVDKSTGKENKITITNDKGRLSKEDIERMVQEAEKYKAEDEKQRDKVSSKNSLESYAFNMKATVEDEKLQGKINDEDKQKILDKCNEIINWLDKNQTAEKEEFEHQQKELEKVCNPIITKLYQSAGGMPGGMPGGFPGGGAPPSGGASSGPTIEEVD

B1: DNAJA2LQ (natural protein)
chain: not shown
notes: DNAJA2, human, with L135 and Q136 in the CTDI mutated to Glu
For the molecule B1, the “stoichiometry N” value in data set [1] is at most 2.
Consider B2, for which the binding result with Hsc70wt is on record as “binds”.

B3: DNAJA2wt (natural protein)
chain: not shown
notes: DNAJA2, human class A J-domain protein; last residue Q412; Dimers that assemble into tubular oligomers; For cryo-EM and XL-MS the sample was cross-linked with BS3; The Ni-NTA-Nanogold is said to label Hsc70 specifically, so the His6-SUMO tag was probably removed; also called DnaJ2A
As for B3, the “t1/2 of the temperature-induced dissociation of the oligomers (40 °C)” value in data set [2] worked out at 2.3 min. In addition, in data set [3], the “fold reduction of the aggregate-bound amount against DNAJB1” value is around 2 fold.

B4: DNAJA2ΔG/FR (natural protein)
chain: not shown
notes: DNAJA2, human, lacking the glycine/phenylalanine-rich region (deletion of residues 77 to 101); For cryo-EM and XL-MS the sample was cross-linked with BS3; also called DnaJA2∆G/FR; DnJA2ΔG/FR
For the molecule B4, in data set [4], the binding result was “binds”.

B5: DNAJA2ΔZFLR (natural protein)
chain: not shown
notes: DNAJA2, human, lacking the Zn-finger-like region (deletion of residues 141 to 209)
Regarding B5, the “stoichiometry N” value in data set [1] was at most 2; in data set [5], 2.

B6: DNAJA2ΔCD (domain or fragment)
chain: not shown
notes: DNAJA2, human, lacking the disordered C-terminal domain (deletion of residues 361 to 412, V361 to Q412)
B6: the “stoichiometry N” value in data set [1] came out at 2. Moreover, in data set [3], the binding result was “binds”.

As a reminder, the stoichiometry N is the number of molecules, sites or subunits per partner or assembly.

The values are drawn from paper PMC10480186, “The self-association equilibrium of DNAJA2 regulates its interaction with unfolded substrate proteins and with Hsc70” (Nature Communications, 2023).
